Several values for one entry are separate records, joined by “and”; a condition that tells them apart may be missing. Equal values may be shown once.
Experiments:
[1] = Biocatalytic assay (Michaelis–Menten) of CT and CT hybrids with suc-Ala-Ala-Pro-Phe-pNA; format: biochemical, bovine
Protocol: N-Succinyl-L-Ala-L-Ala-L-Pro-L-Phe-p-nitroanilide was used as a substrate for enzyme bioactivity assays. In a cuvette, 0.1 M sodium phosphate buffer (910–990 μL, pH 8.0), substrate (0–80 μL, 6 mg/mL in DMSO), and enzyme (10 μL, 0.1 mg CT/mL in 0.1 M sodium phosphate buffer (pH 8.0), 40 nM as final CT concentration) were mixed. The rate of hydrolysis was determined by recording the increase in absorbance at 412 nm for the first 45 s after mixing. KM and kcat values were calculated using the Enzfitter software when plotting substrate concentration versus initial hydrolysis velocity.

[2] = Biocatalytic assay (Michaelis–Menten) of TR and TR hybrids with Tos-Gly-Pro-Arg-pNA; format: biochemical, bovine; conditions: [TR]0 = 8.4 nM, [Tos-GPR-pNA]0 = 0–302 μM, 100 mM Tris–HCl and 20 mM CaCl2 (pH 8.0), 37 °C, absorbance 412 nm, first 45 s, Enzfitter
Protocol: N-Tosyl-L-Gly-L-Pro-L-Arg-p-nitroanilide was used as a substrate for enzyme bioactivity assays. In a cuvette, 0.1 M Tris HCl and 20 mM calcium chloride buffer (890–990 μL, pH 8.0), substrate (0–100 μL, 2 mg/mL in DMSO), and enzyme (10 μL, 0.02 mg TR/mL in 100 mM Tris–HCl and 20 mM calcium chloride (pH 8.0), 8.4 nM as final concentration) were mixed for enzyme bioactivity assays. The rate of hydrolysis was determined by recording the increase in absorbance at 412 nm for the first 45 s after mixing. KM and kcat values were calculated using Enzfitter software when plotting substrate concentration versus initial hydrolysis velocity. […]
Table S5. Char acterization and enzymatic activity of TR-pCBMA and inhibited pro- T R pol ymer h ybr i ds with different linkers between the inhibitory and cleavable peptide moieties.
SEC-M ALLS anal ysi s Michaelis-Menten parameters d
Mnb Mwb Đb DPc KM kcat kcat/KM samples kg mol-1 kg mol-1 (CBM A/inhibitor) (µM) (s-1) (µM-1 s-1) […]
SEC -MALLS and 1H NMR spectra. d conditions: [TR]0 = 8.4 nM, [Tos-GPR-pNA]0 = 0 - 302 µM, buffer 100 mM Tris-HCl and 20 mM CaCl2 (pH 8.0) at 37 °C. […]

[3] = [CT]0 = 40 nM, [suc-AAPFpNA]0 = 0–960 μM, 100 mM sodium phosphate (pH 8.0), 37 °C, absorbance 412 nm, first 45 s, Enzfitter

Molecule | Km ([1]; rounded value in comparison with Ki, read-out: KM of the peptide substrate for native CT) [µM] | kcat [1, 3] [s^–1] | kcat/KM [1, 3] | Km ([1]; [CT]0 = 40 nM, [suc-AAPFpNA]0 = 0–960 μM, 100 mM sodium phosphate (pH 8.0), 37 °C, absorbance 412 nm, first 45 s, Enzfitter, read-out: KM) [µM] | kcat [2] [s^–1] | kcat/KM [2] [μM^–1 s^–1] | kcat/KM ([2]; listed as TR-pCBMA) | Km ([2]; read-out: KM) [µM]
N-succinyl-L-Ala-L-Ala-L-Pro-L-Phe-p-nitroanilide [suc-Ala-Ala-Pro-Phe-pNA, reference compound] | 90 | – | – | – | – | – | – | –
α-Chymotrypsin from bovine pancreas, Type II [native CT] | – | 43.6 | 0.484 μM^–1 s^–1 and 0.484 ± 0.069 μM^–1 s^–1 | 90.1 ± 12.5 | – | – | – | –
TR-pCBMA hybrid: control without inhibitory domain; poly(CBMA) exclusively grafted from TR (conjugate, UniProt P00760 24-246, looked up, poly(CBMA) grafted) Serine protease 1: IVGGYTCGANTVPYQVSLNSGYHFCGGSLINSQWVVSAAHCYKSGIQVRLGEDNINVVEGNEQFISASKSIVHPSYNSNTLNNDIMLIKLKSAASLNSRVASISLPTSCASAGTQCLISGWGNTKSSGTSYPDVLKCLKAPILSDSSCKSAYPGQITSNMFCAGYLEGGKDSCQGDSGGPVVCSGKLQGIVSWGSGCAQKNKPGVYTKVCNYVSWIKQTIASN | – | – | 0.292 μM^–1 s^–1 | – | 45.7 ± 1.1 | 2.43 ± 0.36 | 2.43 ± 0.36 μM^–1 s^–1 and 2.43 μM^–1 s^–1 | 18.8 ± 2.8
